Measurements taken from article PMC8421406, “C9orf72-derived arginine-rich poly-dipeptides impede phase modifiers” (Nature Communications, 2021).
Values belong to the molecule of their own block, whether it stands above or below them.

Tests used:
[1] = system: MBP:FUS (full-length FUS droplets) / Kapβ2; experiment: Turbidity assay of FUS droplet formation (OD 395 nm); assay type: biochemical; conditions: 8 μM Kapβ2, 8 μM MBP:FUS
[2] = system: FUS droplets (MBP:FUS/MBP:FUS:EGFP) / Kapβ2; experiment: Fluorescence microscopy of FUS droplets; assay type: biochemical; conditions: 16 μM Kapβ2, 16 μM Kapβ2–M9M complex, 50 μM PR20, repeated three times
[3] = system: GFP:FUS-LC:NLS / mCh:FUS-LC hydrogel; experiment: Hydrogel binding assay, GFP:FUS-LC:NLS on mCh:FUS-LC hydrogel; assay type: biochemical; conditions: Kapβ2 0.1-1.0 µM; PR20 with 1.0 µM Kapβ2
Procedure: The experiment was independently repeated three times with similar results. Here, 10 μm scale bars are shown in the image. e Graphical description of hydrogel binding assay. Hydrogels of mCh:LC-domain accumulate GFP:LC-domain as it co-polymerizes. f Hydrogel binding assay for FUS-LC in the absence and presence of Kapβ2. mCh:FUS-LC (lower images) were incubated with 1.0 µM of GFP (left panel) or 1.0 µM of GFP:FUS-LC:NLS (right panel) in the presence of different concentrations of Kapβ2 (left to right: 0.1, 0.3, and 1.0 µM). g Quantitative analysis of Fig. 1f. Relative intensity of GFP signals is shown as the mean of three independent experiments ± SD, analyzed by one-way ANOVA followed by Dunnett’s multiple comparison test (**P < 0.01, ***P < 0.001). h Hydrogel binding assay for FUS-LC in the absence and presence of Kapβ2 and/or PR20. Hydrogel droplets of mCh:FUS-LC (lower images) were incubated with 1.0 µM of GFP (left panel) or GFP:FUS-LC:NLS (right panel). GFP:FUS-LC:NLS containing Kapβ2 (1.0 µM) was challenged for homotypic polymer extension in the absence or presence of different concentration of PR20. i Quantitative analysis of Fig. 1h. Relative intensity of GFP signals is shown as the mean of three independent experiments ± SD, analyzed by one-way ANOVA followed by Dunnett’s multiple comparison test (**P < 0.01). Source data are provided as a Source Data file. […]

[4] = system: GFP:FUS-LC / mCh:FUS-LC hydrogel; experiment: Hydrogel binding assay, GFP:FUS-LC on mCh:FUS-LC hydrogel; assay type: biochemical; conditions: Kapβ2 0.1-10.0 µM; 1.0 µM GFP:FUS-LC
From the text: Expression plasmids for recombinant proteins (GFP/mCherry fusion LC-domain of FUS (residue 2–214, GFP/mCh:FUS-LC) and GFP/mCherry fusion LC-domain of hnRNPA2 (residue 181–341, GFP/mCh:hnRNPA2-LC)) were obtained from the Steven L. McKnight Laboratory. Expression plasmid for GFP:FUS-LC fusion NLS (residue 501–526, GFP:FUS-LC:NLS), mCh fusion LC-domain of TDP43 (residue 262–414, mCh:TDP43-LC), and GFP-tagged cNLS (residue 78–99) fusion TDP43-LC (GFP:cNLS:TDP43-LC) were constructed using In-Fusion HD Cloning Kit (Takara Bio, Inc.). GFP/mCh:FUS-LC, GFP:FUS-LC:NLS, and GFP/mCh:hnRNPA2-LC were expressed in E. coli BL21(DE3) cells with 0.5 mM IPTG at 20 °C overnight and purified by Ni-NTA Agarose (FUJIFILM Wako Pure Chemical Corporation), as described in a previous study. GFP:cNLS:TDP43-LC were expressed with 1.0 mM IPTG at 37 °C for 3 h and mCh:TDP43-LC were expressed with 0.5 mM IPTG at 16 °C overnight. GFP:cNLS:TDP43-LC and mCh:TDP43-LC were purified by Ni-NTA as described in a previous study[48] with some modifications. […] Relative intensity of GFP signals across the hydrogel droplets were measured in triplicate by using the profile plot mode in ImageJ. […]

Kapβ2 = experiment: Solution NMR (1H-13C methyl) of labelled Kapβ2; assay type: binding; conditions: comparison of perturbations by PR20, M9M and FUS-ΔNLS
Procedure: The Kapβ2 expression plasmid was transformed into BL21(DE3) cells. The protein samples with ^1H,^13C-labeled methyl groups in deuterium background were prepared as described in a previous study. The cells were grown in medium with ^15NH4Cl (2 gL^−1, CIL) and ^2H7-glucose (2 g L^−1, CIL) in 99.9% ^2H2O (Isotec). The precursors for methyl groups of Ile, Val, and Leu, α-ketobutyric acid (50 mg L^−1) and α-ketoisovaleric acid (80 mg L^−1), and [^13CH3] methionine (50 mg L^−1) were added to the culture 1 h before the addition of IPTG. Protein expression was induced by the addition of 0.5 mM IPTG at OD600 ~ 0.6, followed by ~16 h of incubation at 25 °C. […] Protein concentration was determined spectrophotometrically at 280 nm using a corresponding extinction coefficient.
The isotopically labeled Kapβ2 was prepared in the NMR buffer containing 20 mM ^2H-Tris pH 7.4, 150 mM NaCl, 2 mM MgCl2, 2 mM DTT, and 2% glycerol, concentrated to 20 μM. […] Perturbation of the side chain methyl resonances were each monitored using ^1H-^13C heteronuclear multiple quantum coherence. […] The perturbations of the resonances were evaluated based on chemical shift change or intensity change. […]
In order to investigate the interaction between Kapβ2 and PR poly-dipeptide by NMR, the NMR spectra of the isotopically labeled Kapβ2 in the absence and presence of the synthetic peptide of PR20:HA were measured. […]

Effect on hydrogel binding of GFP:FUS-LC:NLS [3]: blocked by Kapβ2 | Effect on hydrogel binding of GFP:FUS-LC [4]: not blocked
B1: Kapβ2: nuclear import receptor karyopherin-β2, recombinant (protein)
chain: MVWDRQTKMEYEWKPDEQGLQQILQLLKESQSPDTTIQRTVQQKLEQLNQYPDFNNYLIFVLTKLKSEDEPTRSLSGLILKNNVKAHFQNFPNGVTDFIKSECLNNIGDSSPLIRATVGILITTIASKGELQNWPDLLPKLCSLLDSEDYNTCEGAFGALQKICEDSAEILDSDVLDRPLNIMIPKFLQFFKHSSPKIRSHAVACVNQFIISRTQALMLHIDSFIENLFALAGDEEPEVRKNVCRALVMLLEVRMDRLLPHMHNIVEYMLQRTQDQDENVALEACEFWLTLAEQPICKDVLVRHLPKLIPVLVNGMKYSDIDIILLKGDVEEDETIPDSEQDIRPRFHRSRTVAQQHDEDGIEEEDDDDDEIDDDDTISDWNLRKCSAAALDVLANVYRDELLPHILPLLKELLFHHEWVVKESGILVLGAIAEGCMQGMIPYLPELIPHLIQCLSDKKALVRSITCWTLSRYAHWVVSQPPDTYLKPLMTELLKRILDSNKRVQEAACSAFATLEEEACTELVPYLAYILDTLVFAFSKYQHKNLLILYDAIGTLADSVGHHLNKPEYIQMLMPPLIQKWNMLKDEDKDLFPLLECLSSVATALQSGFLPYCEPVYQRCVNLVQKTLAQAMLNNAQPDQYEAPDKDFMIVALDLLSGLAEGLGGNIEQLVARSNILTLMYQCMQDKMPEVRQSSFALLGDLTKACFQHVKPCIADFMPILGTNLNPEFISVCNNATWAIGEISIQMGIEMQPYIPMVLHQLVEIINRPNTPKTLLENTAITIGRLGYVCPQEVAPMLQQFIRPWCTSLRNIRDNEEKDSAFRGICTMISVNPSGVIQDFIFFCDAVASWINPKDDLRDMFCKILHGFKNQVGDENWRRFSDQFPLPLKERLAAFYGV
modifications: left off: GST, end not stated, cleaved
notes: nuclear import receptor karyopherin-β2, recombinant
Effect of Kapβ2 on FUS droplet formation (turbidity) [1]: kept FUS from changing into liquid-like droplets | Effect on FUS droplets (microscopy) [2]: FUS droplets are dissolved by Kapβ2

B2: FUS-ΔNLS: FUS (1-500, FUS-ΔNLS) (protein)
chain: MASNDYTQQATQSYGAYPTQPGQGYSQQSSQPYGQQSYSGYSQSTDTSGYGQSSYSSYGQSQNTGYGTQSTPQGYGSTGGYGSSQSSQSSYGQQSSYPGYGQQPAPSSTSGSYGSSSQSSSYGQPQSGSYSQQPSYGGQQQSYGQQQSYNPPQGYGQQNQYNSSSGGGGGGGGGGNYGQDQSSMSSGGGSGGGYGNQDQSGGGGSGGYGQQDRGGRGRGGSGGGGGGGGGGYNRSSGGYEPRGRGGGRGGRGGMGGSDRGGFNKFGGPRDQGSRHDSEQDNSDNNTIFVQGLGENVTIESVADYFKQIGIIKTNKKTGQPMINLYTDRETGKLKGEATVSFDDPPSAKAAIDWFDGKEFSGNPIKVSFATRRADFNRGGGNGRGGRGRGGPMGRGGYGGGGSGGGGRGGFPSGGGGGGGQQRAGDWKCPNPTCENMNFSWRNECNQCKAPKPDGPGGGPGGSHMGGNYGDDRRGGRGGYDRGGYRGRGGDRGGFRGGRGG
modifications: left off: MBP, end not stated, state not stated
Binding site on Kapβ2 by NMR (Kapβ2): the binding site for FUS-ΔNLS does not overlap with that for PR20
